Results on 6 sequences are retold here after patent US20170114420.

Common to all, as to test: ELONA
In data set [1] the test system is Norovirus GII.6 VLP, capsid protein VP1 (Norovirus GII.6). Conditions: 1 uM aptamer, RT.
For data set [2], the system named is Norovirus GII.1 VLP, capsid protein VP1 (Norovirus GII.1). Conditions: 1 uM aptamer, RT.
Data set [3] has as its system Norovirus GII.4 (Grimsby) VLP, capsid protein VP1 (Norovirus GII.4 Grimsby). The following applies: 1 uM aptamer, RT.
The test system of data set [4] is Norovirus GII.17 VLP, capsid protein VP1 (Norovirus GII.17). Conditions: 1 uM aptamer, RT.
Data set [5] deals with Norovirus GII.4 (Houston) VLP, capsid protein VP1 (Norovirus GII.4 Houston). Conditions: 1 uM aptamer, RT.
Data set [6] relates to Norovirus GII.12 VLP, capsid protein VP1 (Norovirus GII.12). Conditions: 1 uM aptamer, RT.
Data set [7] has as its system Norovirus GI.7 VLP, capsid protein VP1 (Norovirus GI.7). Conditions: 1 uM aptamer, RT.
The test system of data set [8] is Norovirus GI.4 VLP, capsid protein VP1 (Norovirus GI.4). Conditions: 1 uM aptamer, RT.
The subject of data set [9] is Norovirus GI.6 VLP, capsid protein VP1 (Norovirus GI.6). Conditions: 1 uM aptamer, RT.
Data set [10] concerns Norovirus GII.3 VLP, capsid protein VP1 (Norovirus GII.3). The following applies: 1 uM aptamer, RT.
Data set [11] has as its system Norovirus GI.8 VLP, capsid protein VP1 (Norovirus GI.8). The following applies: 1 uM aptamer, RT.
Data set [12] relates to Norovirus GII.7 VLP, capsid protein VP1 (Norovirus GII.7). Conditions: 1 uM aptamer, RT.
Data set [13] has as its system Norovirus GII.4 (Sydney) VLP, heat-denatured (80 C, 5 min) (Norovirus GII.4 Sydney). The following applies: VLP denatured 80 C 5 min.

Turning to “AGTATACGTATTACCTGCAGCCACCAGTGTGTTGAGGTTTGAGCACACTGATAGAGTGTCACGATATCTCGGAGATCTTGC [SMV-19]”, the binding signal in data set [1] was found to be 1.8 T/N ratio; in data set [2] it was 7.1 T/N ratio; in data set [3] it was 9.6 T/N ratio; in data set [4], 3 T/N ratio; in [5], 12.5 T/N ratio; in [6], 1.5 T/N ratio. Moreover, the binding signal in data set [7] was determined as 10.3 T/N ratio; in [8] it was 1.7 T/N ratio; in [9], 3.7 T/N ratio; in data set [10] it was 1.7 T/N ratio; in [11], 1.7 T/N ratio; in data set [12] it was 4 T/N ratio.
With “AGTATACGTATTACCTGCAGCCATCTGTGTGAAGACTATATGGCGCTCACATATTTCTTTCCGATATCTCGGAGATCTTGC [SMV-25]”, the binding signal in data set [1] was 7.3 T/N ratio; in data set [2], 9.4 T/N ratio; in data set [3] it was 10.4 T/N ratio; in [4], 2 T/N ratio; in data set [5] it was 11 T/N ratio; in data set [6], 1.9 T/N ratio. The binding signal in data set [7] was 3.5 T/N ratio; in data set [8], 5.6 T/N ratio; in data set [9], 2.4 T/N ratio; in data set [10] it was 5.4 T/N ratio; in [11], 6.2 T/N ratio; in data set [12], 9.1 T/N ratio.
With “AGTATACGTATTACCTGCAGCCCATGTTTTGTAGGTGTAATAGGTCATGTTAGGGTTTCTGCGATATCTCGGAGATCTTGC [SMV-21]”, the binding signal came to 3 T/N ratio in data set [1]; 8.6 T/N ratio in data set [2]; 6.4 T/N ratio in data set [3]; 12.2 T/N ratio in [4]; 11.3 T/N ratio in data set [5]; 6.6 T/N ratio in data set [6]. The binding signal turned out to be 8.1 T/N ratio in data set [7]; 4.3 T/N ratio in data set [8]; 3.8 T/N ratio in data set [9]; 11.8 T/N ratio in data set [10]; 4.6 T/N ratio in [11]; 13.5 T/N ratio in data set [12].
On to “AGTATACGTATTACCTGCAGCTGACCGAGTGTCTGGTCATTTTCGATGTCTGTTGTTAGGCCGATATCTCGGAGATCTTGC [SMV-26]”, for which the binding signal in data set [1] amounted to 2.8 T/N ratio; in data set [2] it was 2.1 T/N ratio; in [3], 3.2 T/N ratio; in data set [4] it was 1.3 T/N ratio; in data set [5], 2.8 T/N ratio; in data set [6] it was 2.4 T/N ratio. Besides, the binding signal in data set [7] was determined as 1.8 T/N ratio; in data set [8] it was 1.1 T/N ratio; in data set [9], 1.5 T/N ratio; in [10], 2.4 T/N ratio; in data set [11] it was 1.2 T/N ratio; in data set [12], 2.8 T/N ratio.
As to “AGTATACGTATTACCTGCAGCTGGGAAGAGGTCCGGTAAATGCAGGGTCAGCCCGGAGAGCGATATCTCGGAGATCTTGC [M6-2]”, the binding signal (VLP/no VLP ratio) in data set [1] turned out to be 4.4; in data set [2] it was 4.52; in data set [3], 11.5; in data set [4] it was 5.24; in data set [5], 13; in data set [6], 5.55. Further, the binding signal (VLP/no VLP ratio) in data set [7] worked out at 7.56; in data set [8], 3.36; in data set [9] it was 2.75; in [10], 3.16; in data set [11], 4.55; in data set [12], 8.02. For the same sequence, in data set [13], the binding signal (% of untreated VLP signal) worked out at 1.98.
For “AGTATACGTATTACCTGCAGCTGTTTATGGGGATAAACGTATCTAATTCGTGTACTAATCACGATATCTCGGAGATCTTGC [M1]”, the binding signal (VLP/no VLP ratio) was found to be 2.38 in [1]; 3.59 in [2]; 7.59 in data set [3]; 3.94 in data set [4]; 10.4 in data set [5]; 4.47 in data set [6]. In addition, the binding signal (VLP/no VLP ratio) in data set [7] is 7.32; in data set [8] it was 3.17; in data set [9], 1.98; in data set [10], 2.94; in data set [11] it was 2.61; in [12], 7.47.
